Experimental data as given in patent US20090069239.
Values joined by “and” are separate entries in the source; they are usually repeats but may differ in a detail not shown here. Identical values can stand only once.

Target: protamine

B1: iridoptin (37-kDa polypeptide expressed from the subgenic istk fragment of Chilo iridescent virus, 6xHis-tagged, Pichia-expressed) (protein)
chain: MDLKDEFIQIIKKYSELSLKESENETKKYIQEVFNVSLSEVFIKEPSKQETLKQEPTQETGCIYIFKKGKNIGQKCGSGKSKFCYKHKKNDLNIKVNQERNIKKPIPKPIPTNKIETGSVINQNWFIGTSIGKGGFGEIYSAAKFNDHGNYKDDDFSFAIKIEPKSGPLFVEMHFYKRVIVEKEIEKFKLQKNIQYLGLPKYYGSGLYNDYRYIVMEKYDSNIDKLFRNGDLNSSTILQIGIQILNIVEYIHSKGYIHADIKGENILLKENDTSHIYLVDFGLCSRYSNG
With B1 the SPECIFIC ACTIVITY (CPM/µg TOTAL PROTEIN), protein kinase assay (CPM/µg total protein) was 1110 and 895 and the SPECIFIC ACTIVITY (CPM/µg TOTAL PROTEIN), protein kinase assay, mean (CPM/µg total protein) was 1000.
